Experimental findings from article PMC12804927 are described below.

For the data set, the target named is T1, GFP-UTP15 IDR (UniProt Q8C7V3 314-528).
T1 sequence: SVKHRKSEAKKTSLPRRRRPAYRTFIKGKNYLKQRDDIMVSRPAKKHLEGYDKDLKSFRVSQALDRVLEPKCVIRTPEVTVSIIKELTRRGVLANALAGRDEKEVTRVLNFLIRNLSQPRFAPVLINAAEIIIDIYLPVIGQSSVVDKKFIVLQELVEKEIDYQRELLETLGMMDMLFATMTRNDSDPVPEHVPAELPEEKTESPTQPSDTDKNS
In words: EMSA. In general terms: A gel shift assay detects complexes by their altered migration in electrophoresis.

Turning to UCGUGUCUCGCUUGACCAUGUUCCCAGAGUCGGUGGAUGU (ssRNA) [5'ETS RNA probe], the binding result is reported as “binds”.
